Measured values: publication PMC12187842, “A novel molecule targeting neutrophil-mediated B-1a cell trogocytosis attenuates sepsis-induced acute lung injury” (Frontiers in Immunology, 2025)

B1: recombinant mouse CD47 (receptor, UniProt Q61735 19-140, looked up)
chain: QLLFSNVNSIEFTSCNETVVIPCIVRNVEAQSTEEMFVKWKLNKSYIFIYDGNKNSTTTDQNFTSAKISVSDLINGIASLKMDKRDAMVGNYTCEVTELSREGKTVIELKNRTVSWFSPNEK
notes: CD47, mouse, recombinant; UniProt Q61735 is printed for the in silico model; check the vendor's data sheet; also called rmCD47; source: bought: Abcam (Cat. No. AB231160)
B2: recombinant mouse (rm)Siglec-G (receptor, UniProt Q80ZE3 18-543, looked up)
chain: QMESYFLQVQRIVKAQEGLCIFVPCSFSSPEGKWLNRSPLYGYWFKGIRKPSLSFPVATNNKDKVLEWEARGRFQLLGDISKKNCSLLIKDVQWGDSTNYFFRMERGFERFSFKEEFRLQVEALTQKPDIFIPEVLEPGEPVTVVCLFSWTFNQCPAPSFSWMGDAVSFQESRPHTSNYSVLSFIPGLQHHDTELTCQLDFSRMSTQRTVRLRVAYAPRSLAISIFHDNVSVPDLHENPSHLEVQQGQSLRLLCTADSQPPATLSWVLEDQVLSWSSPVGSRTLALELPWVKAGDSGHYTCQAENRLGSQQHTLDLSVLYPPQDLRVTVSQANRTVLEILRNAISLPVLEGQSLCLVCVTYSNPPANVSWAWVTQTLIPIQSSEPGVLELPLVQREHEGEFTCAAQNPLGAQRISLSLSVHYPPQMSSPSCSWEAKGLHCNCSSRAWPAPSLRWRLGEGLLEGNSSNASFTVTFSSLGPWVNSSLSLLQELGPSLWLSCESWNTHGAQTTSVLLLPDKDSATAFSK
notes: Siglec-G, mouse, recombinant; UniProt Q80ZE3 is printed for the in silico model; check the vendor's data sheet; source: bought: R&D Systems (Cat. No. 10103-SL-050)

Legend:
[1] = molecular target: B2; test: SPR; OpenSPR (Nicoya), HS-Carboxyl sensor; rmCD47 immobilised by EDC/NHS coupling; rmSiglec-G as analyte at 100, 250 and 500 nM; PBS 0.05% P20, pH 7.4; 40 uL/min; 20°C; global fit for 1:1 binding; details: both partners purified
recombinant mouse CD47 = molecular target: B1; test: SPR; same setting as a1 (rmCD47 immobilised on HS-carboxyl sensor); peptide C11 at 1 µM preincubated for 30 minutes with rmSiglec-G at 100, 250 and 500 nM, then injected; details: both partners purified
rmCD47 = test: Surface plasmon resonance: rmSiglec-G binding to immobilized rmCD47; design: species or system mouse; details: SPR (OpenSPR), rmCD47 immobilized on HS-carboxyl sensor, rmSiglec-G analyte 100, 250 and 500 nM, PBS 0.05% P20, pH 7.4, 20°C, 1:1 global fit; no C11; read-out: dissociation constant (KD) Siglec-G/CD47
Method: To examine the direct interaction between recombinant mouse (rm)Siglec-G (Cat. No. 10103-SL-050, R&D Systems, Minneapolis, MN) and rmCD47 (Cat. No. AB231160, Abcam, Cambridge, UK), surface plasmon resonance (SPR), using OpenSPR (Nicoya, Ontario, Canada), was performed. HS-Carboxyl sensor was used; rmCD47 was immobilized on the sensor surface; rmSiglec-G was in the reaction buffer, working as an analyte. Binding reactions were performed in PBS 0.05% P20, pH7.4. The carboxyl sensor was first cleaned by injecting 150 µL of 10 mM HCl, followed by injection of 150 µL of the mixture of 1 aliquot of N-ethyl-N′-[3-[…]]-carbodiimide (EDC) and 1 aliquot of N-hydroxysuccinimide (NHS) to activate the sensor surface. […] To evaluate the binding, the analyte ranging from 100 nM, 250 nM and 500 nM were injected into flow cell-1 and flow cell-2, and the real-time interaction data were analyzed by TraceDrawer (Nicoya). […] For peptide C11 efficacy on Siglec-G binding to CD47, with the same setting as Siglec-G binding with CD47 on HS-carboxyl sensor, peptide C11 at 1 µM preincubated with concentrations of rmSiglec-G 100 nM, 250 nM & 500 nM for 30 minutes and then injected into flow cell-1 and flow cell-2, and real-time interaction were analyzed ab TraceDrawer (Nicoya). […]

Molecule	Kd [1] [µM]	KD in the presence of 1 µM C11 (recombinant mouse CD47) [µM]	Kd (rmCD47) [µM]
B1	0.0108		
B2		0.155	0.0108
